Assay results reported in patent publication US10413564B2, “Compositions and methods for combating drug-resistant cancers” (NATIONAL YANG-MING UNIVERSITY, priority 2016, dated 2019).
“Also recorded” adds a separate entry of the source. Read-outs that look alike come from different tables or passages of the source.

Tests used:
[1] = tested on: colorectal tumors harboring a KRAS mutation; conditions: patients, FDA approval background; cited from earlier work
[2] = tested on: OECM1-Ctx^R cells; assay: Growth inhibition of the cetuximab-resistant subline OECM1-Ctx^R; format: cell-based, human
Procedure: (§2) A total of 5×10^4 cells per well were seeded in a 96-well plate with triplicate and incubated for 24 h and then treated with different concentrations of indicated drugs. After 24 h treatment, the medium was removed. The MTT assay solution was added to each well, and the plate was incubated for 1 h at 37° C. After incubation, the solution was carefully discarded and dimethyl sulphoxide was added to dissolve newly formed mitochondrial MTT crystals. Finally, the plate was read using a microplate reader at 540 nm. Based on the data of cell viability assay, IC50-value calculation was performed by Sigmaplot 10.0 (Systat Software Inc., San Jose, Calif.).

[3] = tested on: FaDu-Ctx^R cells; assay: Growth inhibition of the cetuximab-resistant subline FaDu-Ctx^R; format: cell-based, human
Procedure: A cetuximab-resistant HNSCC subline (named FaDu-Ctx^R) was established by in vivo selection. 1×10^5 wild-type FaDu cells per mouse were inoculated into the subcutaneous area of Balb/c nude mice (n=4). Two mice were treated with PBS and two were treated with cetuxmab once a week. […] After 10 weeks, the xenograpfted tumor was harvested for primary culture. […] The resistance of FaDu-Cxt^R was confirmed in vivo and in vitro. Subsequently, these two sublines were inoculated into nude mice again and treated with cetuximab.
After 24 h treatment, the medium was removed.

[4] = tested on: NF-κB; assay: NF-κB luciferase reporter assay; format: cell-based, human; conditions: cetuximab-resistant cells
Text: Activation of NF-κB in cetuximab-resistant cells was evident by an increased expression of nuclear p65 and p52 proteins and an enhanced NF-κB activity. Knockdown of LTB reduced nuclear p65 and p52, and suppression of LTB by either shRNA or a LTβ neutralizing antibody reduced NF-κB reporter activity.
The reporter constructs (PGL4.2-LTB-WT/PGL4.2-LTB-MUT/pGL4.23 promoter) were co-transfected into HEK-293T, FaDu or OECM1/OECM1-Ctx^R cells with different expression/control vector(s) as indicated in each experiment. A plasmid expressing the bacterial β-galactosidase gene (pCMV-βgal) was co-transfected in each experiment as an internal control for transfection efficiency. Cells were harvested after 48 hours of transfection and luciferase activities were assayed. The relative promoter activities were expressed as the fold-change in luciferase activity after normalization to β-galactosidase activity.

[5] = tested on: OECM1-Ctx^R cells; assay: Clonogenecity assay, sensitization of OECM1-Ctx^R to cetuximab by peptides; format: cell-based, human; conditions: OECM1-Ctx^R / cetuximab-resistant cells
Procedure: The colonies were stained with crystal violet and counted if the size was great than 0.5 mm.
5,000 cells/well were seeded into 24-well plates. After 10 days of culturing, cells were washed by cold PBS twice and fixed by 4% paraformaldehyde for 1 hour. Cells then were stained by 0.005% crystal violet at 4° C. overnight. Colonies with a diameter larger than 0.5 mm were counted.

[6] = target: T1, EGFR (Homo sapiens, UniProt P00533); assay: In vitro kinase assay of EGFR phosphorylation; format: biochemical; set-up: Since LTβ also induces EGFR-ICD phosphorylation in vitro
Text: (§1) Since LTβ also induces EGFR-ICD phosphorylation in vitro, the applicant also investigated whether interception of EGFR-ICD and LTβ interaction could attenuate EGFR phosphorylation.

[7] = target: EGFR-ECD (Homo sapiens, UniProt P00533); assay: Peptide in vitro binding assay with EGFR-ECD; conditions: in vitro binding assay of peptides P1-P10
Procedure: The purified full-length EGFR and EGFR-ECD was incubated with peptides containing sequences of different β-sheets of LTβ.
P1-P10 (SEQ ID NOs: 2-10) were tested for in vitro binding assay.

[8] = target: EGFR-ICD (Homo sapiens, UniProt P00533); assay: In vitro binding assay, EGFR-ICD and LTβ interaction; conditions: LTβ β-sheet peptides
Text: as §1

[9] = target: T1, EGFR; assay: EGFR Y1068 phosphorylation in OECM1-Ctx^R treated with LTβ β-sheet peptides; format: cell-based; set-up: examined the effect of treating the peptides containing different β-sheets of LTβ on OECM1-Ctx^R; endogenous in cells; host or cells: OECM1-CtxR (cetuximab-resistant subline of OECM1); parental OECM1 for comparison
[10] = target: T2, EGF-EGFR binding (Homo sapiens, UniProt P00533); assay: EGF binding (flow cytometry); format: cell-based; conditions: OECM1-Ctx^R
T2 construct: examined the effect of treating the peptides containing different β-sheets of LTβ on OECM1-Ctx^R; endogenous in cells; host or cells: OECM1-CtxR (cetuximab-resistant subline of OECM1); parental OECM1 for comparison
Procedure: To analyze EGF binding, the cells were resuspended, incubated in a PE-conjugated anti-EGF antibody and evaluated using a Cytomics FC 500 instrument (Beckman-Coulter Inc., Fullerton, Calif.). The EGF-bound populations were defined compared with the IgG control group.

[11] = target: T1, EGFR; assay: EGFR dimerization in OECM1-Ctx^R; format: cell-based; set-up: examined the effect of treating the peptides containing different β-sheets of LTβ on OECM1-Ctx^R; endogenous in cells; host or cells: OECM1-CtxR (cetuximab-resistant subline of OECM1); parental OECM1 for comparison
[12] = tested on: OECM1-Ctx^R or primary HNSCC cells; assay: Sensitization to cetuximab treatment by pathway inhibitors
Procedure: as §2

panitumumab
effect in colorectal tumors harboring a KRAS mutation [1]: little or no effect

CCGGCGAGAGGGTGTACGTCAACATCTCGAGATGTTGACGTACACCCTCTCGTTTTT G (CCGGCGAGAGGGTGTACGTCAACATCTCGAGATGTTGACGTACACCCTCTCGTTTTTG; expressed or natural sequence) [shRNA]
cetuximab resistance after knockdown of LTβ [2]: reverses cetuximab resistance
cetuximab resistance after knockdown of LTβ [3]: reverses cetuximab resistance
NF-κB reporter activity [4]: reduced

QDGLYYLYCLVGYR (beta-sheet of LTbeta) [P5]
sensitization to cetuximab treatment by peptide ([5]; listed as 5th β-sheet): capable for sensitizing; also recorded: sensitized
EGFR phosphorylation, in vitro kinase assay [6]: suppresses EGFR phosphorylation most significantly
interaction with EGFR-ECD [7]: interact
interaction in the in vitro binding assay (EGFR-ICD context) [8]: interacted with LTβ
EGFR Y1068 phosphorylation [9]: suppressed

ERVYVNISH (beta-sheet of LTbeta) [P9]
EGF-EGFR binding [10]: reduced
sensitization to cetuximab treatment by peptide ([5]; listed as 9th β-sheet): capable for sensitizing; also recorded: sensitized
EGFR dimerization [11]: inhibits
EGFR phosphorylation, in vitro kinase assay [6]: suppresses EGFR phosphorylation most significantly
interaction with EGFR-ECD [7]: interact
interaction in the in vitro binding assay (EGFR-ICD context) [8]: interacted with LTβ
EGFR Y1068 phosphorylation ([9]; listed as 9th β-sheet): suppressed; also recorded: more prominent effect

CC(C)C[C@H](NC(=O)[C@H](Cc1ccccc1)NC(=O)c1cnccn1)B(O)O [bortezomib]
sensitization to cetuximab treatment by inhibition of NF-κB activity [12]: sensitized

WYTSVGFGGLVQLR (beta-sheet of LTbeta) [P8]
interaction with EGFR-ECD [7]: interact
interaction in the in vitro binding assay (EGFR-ICD context) [8]: interacted with LTβ
